Source: US20100249038A1, “ANTAGONISTS OF THE RECEPTOR FOR ADVANCED GLYCATION END-PRODUCTS (RAGE)” (Board of Regents, University of Texas System, priority 2007, published 2010)
Non-standard residues stand in square brackets, D forms with d.

B1: S100P: S100 family calcium-binding protein, RAGE ligand, added exogenously as purified protein (protein, UniProt P25815 1-95, looked up)
Protein S100-P: MTELETAMGMIIDVFSRYSGSEGSTQTLTKGELKVLMEKELPGFLQSGKDKDAVDKLLKDLDANGDAQVDFSEFIVFVAAITSACHKYFEKAGLK

Columns and labels:
[1] = biological target: T1, RAGE (sRAGE, extracellular domain) (Homo sapiens, UniProt Q15109); assay: ELISA of amphoterin (HMGB1) binding to coated sRAGE; details: amphoterin 0-100 ng; FIG. 9; p<0.05 versus HMGB1 alone
T1 construct: the extracellular domain of RAGE peptide (sRAGE) was coated onto the ELISA plate
From the text: S100P peptide antagonists having the sequence Ac-ELKVLMEKEL-NH2 were made with standard L isomers of amino acids. This peptide antagonist comprises the amino acid sequence referred to as SEQ ID NO: 1 (ELKVLMEKEL), and in this instance the termini were blocked to prevent and/or reduce degradation. The inverse sequence, Ac-LEKEMLVKLE-NH2 was produced using D isomers of amino acids. This peptide antagonist comprises the amino acid sequence referred to as SEQ ID NO: 4 (LEKEMLVKLE), and in this instance the termini were blocked to prevent and/or reduce degradation. D isomers of amino acids, which are not naturally occurring, are thought to provide prolonged half-life in vivo. […] For this study, the extracellular domain of RAGE peptide (sRAGE) was coated onto the ELISA plate for 1 hour and non-specific binding sites were blocked with 1% BSA for 15 minutes. Amphoterin (0-100 ng) was added and incubated for 1 hour to allow its binding to its receptor and unbound molecules were removed by washing. Primary antibody against amphoterin and secondary antibody labeled with HRP and subsequently substrate for HRP was used to detect bound amphoterin with its receptor sRAGE. […] A control peptide of the same size had no effect. *=p<0.05 versus HMGB1 alone.
Inhibition of the binding of amphoterin to RAGE by antagonist peptides was tested using an in vitro ELISA based binding assay. […]

[2] = biological target: T1, RAGE (sRAGE, extracellular domain); assay: ELISA of S100P binding to coated sRAGE; details: FIG. 10
[3] = biological target: T1, RAGE (sRAGE, extracellular domain); assay: ELISA of S100A4 binding to coated sRAGE; details: FIG. 10
[4] = tested on: S100P induced NFκB activity in pancreatic cancer MPanc-96 cells; assay: S100P induced NFκB-Luc reporter activity in MPanc-96 cells; type: cell-based; details: pre-treatment with peptide, FIG. 11
From the text: MPanc-96 pancreatic cancer cells were stably transfected with a reporter plasmid, NFκB-Luc reporter, that provides a quantifiable photon output based on NFκB transcriptional activity. Extracellular addition of S100P to the cells induced the NFκB activity, which has previously been proven to be mediated through interaction with RAGE. Pre-treatment of the cells with S100P peptide antagonists (L-peptide and D-peptide), block S100P binding with its receptor RAGE, thus blocking S100P induced NFκB activity. Results of this assay are depicted in FIG. 11.

[5] = tested on: NFκB activity in subcutaneous MPanc-96 tumors; assay: NFκB-Luc activity in subcutaneous MPanc-96 tumors after intratumoral injection; type: in vivo, nude mice; details: 10 mg/kg b.wt intratumorally, measured after 4 hours; FIG. 12
Procedure: S100P peptide antagonists (L-peptide and D-peptide) block NFκB activity in vivo in subcutaneous tumors. MPanc-96 pancreatic cancer cells stably transfected with the NFκB-Luc reporter were injected into nude mice subcutaneously (1×10^6) and in vivo NFκB activity indicated by luciferase was measured using an IVIS-100 bioluminescence system. S100P peptide antagonists (L-peptide and D-peptide) (10 mg/kg·b·wt) were injected intratumorally and NFκB activity was measured after 4 hours. […] Thus, delivery of peptide antagonists by direct injection in subcutaneous tumors inhibits NFκB as an indirect read-out of RAGE.

[6] = tested on: NFκB activity in orthotopic MPanc-96 tumor; assay: NFκB-Luc activity in orthotopic MPanc-96 tumors after intraperitoneal injection; type: in vivo; details: 10 mg/kg b.wt intraperitoneally, measured after 4 hrs; p<0.05; FIG. 13
Procedure: MPanc-96 pancreatic cancer cells stably transfected with the NFκB-Luc reporter were injected orthotopically into the pancreas (1×10^6), and NFκB activity indicated by luciferase activity was measured after two weeks. S100P peptide antagonists (L-peptide and D-peptide) (10 mg/kg·b·wt) were injected intraperitoneally and NFκB activity in the orthotopic tumor was measured after 4 hrs.

[7] = tested on: NFκB activity stimulated by S100P in Panc-1 cells; assay: NFκB luciferase reporter activity stimulated by S100P in Panc-1 cells; type: cell-based; details: S100P 100 nM, peptide 1 μg/ml, 4 hours, FIG. 7B
Procedure: (§1) The effect of these novel peptide antagonists was evaluated on NFκB activity stimulated by S100P in Panc-1 cells. Panc-1 cells stably expressing the NFκB luciferase reporter gene were treated with or without S100P (100 nM) and either peptides of SEQ ID NOs: 1, 2 or 3 (1 μg/ml) for 4 hours. NFκB activity was estimated using luciferase quantitation. Numbers represent means±SE of triplicate determinations. * vs S100P alone (p<0.05); # vs control (p<0.05). Furthermore, administration of peptide of SEQ ID NO: 1 but not SEQ ID NO: 3 inhibited basal NFκB activity in S100P expressing BxPC3 cell tumors when administered in vivo as shown in FIG. 8. BxPC3 cells stably expressing an NFκB luciferase reporter were transplanted to scid mice and tumors were allowed to form. Animals were then injected i.p. with either peptide of SEQ ID NO: 1 (FIG. 8A) or SEQ ID NO: 3 (FIG. 8B). Imaging of luciferase activity was performed before and 24 h after peptide delivery. […] Numbers represent means±SE of triplicate determinations. *=p<0.05 vs time 0.

[8] = tested on: NFκB activity in S100P expressing BxPC3 cell tumors; assay: Basal NFκB luciferase activity in BxPC3 cell tumors in vivo after i.p. peptide; details: BxPC3 tumors in scid mice, 24 h after peptide delivery vs time 0, FIG. 8
Procedure: as §1

RAGE [9] = biological target: T2, RAGE (Homo sapiens, UniProt Q15109); assay: ELISA-type assay of purified S100P binding to coated purified RAGE; design: Purified RAGE was coated into culture wells; details: peptides 50 μM; FIG. 7A; preliminary studies
Procedure: The binding of purified S100P to RAGE was evaluated using an ELISA technique. Purified RAGE was coated into culture wells, S100P was allowed to bind in the presence and absence of the peptides (50 μM), the dishes were extensively washed, and bound S100P was detected with a specific antibody coupled to HRP.
Target sequence in this assay (Q15109 23-342): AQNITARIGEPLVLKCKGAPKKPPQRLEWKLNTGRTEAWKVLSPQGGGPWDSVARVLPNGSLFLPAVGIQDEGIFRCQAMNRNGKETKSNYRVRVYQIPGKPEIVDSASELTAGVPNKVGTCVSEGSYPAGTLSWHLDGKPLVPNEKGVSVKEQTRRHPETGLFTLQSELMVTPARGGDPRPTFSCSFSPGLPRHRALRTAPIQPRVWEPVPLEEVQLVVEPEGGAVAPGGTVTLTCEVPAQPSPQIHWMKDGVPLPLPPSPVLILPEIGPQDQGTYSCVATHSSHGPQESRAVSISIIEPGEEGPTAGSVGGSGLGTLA

[10] = tested on: human umbilical vein endothelial cells (HUVECs); assay: HUVEC cell number after S100P treatment (MTS); type: cell-based; details: S100P treatment for 48 hrs vs uninduced bacterial protein; FIG. 4A
Procedure: (§2) S100P is secreted by pancreatic cancer cells and acts in an autocrine manner to stimulate their growth, survival, and invasiveness. Thus, S100P could also interact with receptors on cells within the microenvironment. The effects of S100P on human umbilical vein endothelial cells (HUVECs) in vitro were examined. […] HUVEC cells were cultured in the presence of either S100P or uninduced bacterial protein for 48 hours and the number of cells was estimated using MTS. […] Tumors formed with BxPC3 cells were harvested and frozen sections were stained for CD31 staining with the help of the Cancer Biology Histology core. Microvessels bearing CD31 are stained brown. […] HUVEC cells were plated on Matrigel and followed for 4 hours. After this time, control cells mostly remained individually isolated while a few cells began to migrate and align themselves and occasional sprouting was observed. At 4 hrs, cells treated with S100P had mostly migrated aligned themselves, sprouted, formed closed polygons and a complex mesh like structure had developed.

[11] = tested on: human umbilical vein endothelial cells (HUVECs); assay: HUVEC migration and alignment on Matrigel; type: cell-based; details: 4 hours, FIG. 4C
Procedure: as §2

RAGE [12] = biological target: T2, RAGE; assay: Co-immunoprecipitation of RAGE with S100P from pancreatic cancer cell lysates; type: binding; design: endogenous in cells; host or cells: MiaPaca2, BxPC3 (and Panc-1, printed 'Panel') cell lysates; details: S100P 100 ng, 16 hours at 4° C., FIG. 5
Procedure: As a direct indication of this interaction, lysates from Panel, and MiaPaca2 cells were incubated with S100P and S100P was then immunoprecipitated. RAGE was not present in the samples run without addition of S100P or S100P antibody (lanes A-C), but RAGE was present when both these reagents were included (lanes D-F). […] In these experiments MiaPaca2 (A-D) and BxPC3-1 (E) cell lysates were incubated in the presence of S100P (100 ng) for 16 hours at 4° C. before immunoprecipitation with anti-S100P monoclonal antibodies (IP-S100P) (+) or control IgG (−) and RAGE was identified in the immunoprecipitates by western blotting with an anti-RAGE antibody (IB-RAGE).
Target sequence in this assay (Q15109 23-404): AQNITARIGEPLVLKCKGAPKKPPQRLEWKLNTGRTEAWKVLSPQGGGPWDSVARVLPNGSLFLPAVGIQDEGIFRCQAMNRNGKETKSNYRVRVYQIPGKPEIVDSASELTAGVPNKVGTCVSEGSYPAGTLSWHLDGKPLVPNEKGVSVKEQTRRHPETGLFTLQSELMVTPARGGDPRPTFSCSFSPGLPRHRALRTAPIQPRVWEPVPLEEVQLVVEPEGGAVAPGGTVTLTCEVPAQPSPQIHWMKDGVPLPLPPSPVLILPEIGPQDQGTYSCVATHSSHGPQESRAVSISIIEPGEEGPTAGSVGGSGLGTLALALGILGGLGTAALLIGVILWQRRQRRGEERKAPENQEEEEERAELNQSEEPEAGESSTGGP

T1 sequence (Q15109 23-342 limits assumed): as the sequence (Q15109 23-342) above

Molecule | block of amphoterin (HMGB1) binding to RAGE [1] | block of S100P binding to RAGE [2] | block of S100A4 binding to RAGE [3] | block of S100P induced NFκB activity [4] | reduction in NFκB activity in subcutaneous tumors [5] | inhibition of cancer cell NFκB activity in orthotopic tumor [6] | block of the activation of NFκB by S100P [7] | inhibition of basal NFκB activity in tumors in vivo [8] | block of the interaction of S100P with RAGE (RAGE [9]) | also measured
Ac-ELKVLMEKEL-NH2 (listed as Homo sapiens) [L-peptide] | competed with amphoterin and blocked its ability to bind with RAGE | compete for binding of S100P | blocked | block S100P induced NFκB activity | strong reduction in NFκB activity | significant inhibition of cancer cell NFκB activity |  |  |  | 
Ac-LEKEMLVKLE-NH2 (Ac-[dL][dE][dK][dE][dM][dL][dV][dK][dL][dE]-NH2; SMILES CSCC[C@@H](NC(=O)[C@@H](CCC(=O)O)NC(=O)[C@@H](CCCCN)NC(=O)[C@@H](CCC(=O)O)NC(=O)[C@@H](CC(C)C)NC(C)=O)C(=O)N[C@H](CC(C)C)C(=O)N[C@@H](C(=O)N[C@H](CCCCN)C(=O)N[C@H](CC(C)C)C(=O)N[C@H](CCC(=O)O)C(N)=O)C(C)C; listed as Homo sapiens) [D-peptide] | competed with amphoterin and blocked its ability to bind with RAGE | compete for binding of S100P | blocked | block S100P induced NFκB activity | strong reduction in NFκB activity | significant inhibition of cancer cell NFκB activity |  |  |  | 
ELKVLMEKEL (listed as Homo sapiens) [SEQ ID NO: 1] |  |  |  |  |  |  | could also block the activation of NFκB by S100P | caused a significant reduction in NFκB activity | could block the interaction of S100P with RAGE | 
GKDGDAVDKLLKD (listed as Homo sapiens) [SEQ ID NO: 3, b142 prints …] |  |  |  |  |  |  | could also block the activation of NFκB by S100P | did not | could block the interaction of S100P with RAGE | 
KELPGFLQSGKDKD (listed as Homo sapiens) [SEQ ID NO: 2] |  |  |  |  |  |  | not |  | not | 
B1 |  |  |  |  |  |  |  |  |  | HUVEC cell numbers [10]: significant increase in HUVEC cell numbers; endothelial cell migration and alignment [11]: increased endothelial cell migration and alignment; direct interaction with RAGE (RAGE in S100P immunoprecipitates) (RAGE [12]): able to interact directly with RAGE
